According to US20250009801A1 (Innovent, published 2025):

How the values were obtained:
[1] = biological target: HB37A6 PG Ab (P329G mutated HB37A6 antibody, human IgG1); assay: cell-based or functional assay
[2] = biological target: T1, human Claudin18.2-His (Acro, CL2-H5546) (human, UniProt P56856-2 1-261); assay: SPR (Biacore T200), Claudin18.2-His coupled on CM5 chip, antibody in the mobile phase (avidity)
T1 construct: Bought reagent, amine-coupled to a CM5 chip; also called recombinant human CLDN18.2 protein; not shown: His tag

Sequence of HB37A6 PG Ab (P329G mutated HB37A6 antibody, human IgG1) (heavy, as listed by the source, chain 1 of 2): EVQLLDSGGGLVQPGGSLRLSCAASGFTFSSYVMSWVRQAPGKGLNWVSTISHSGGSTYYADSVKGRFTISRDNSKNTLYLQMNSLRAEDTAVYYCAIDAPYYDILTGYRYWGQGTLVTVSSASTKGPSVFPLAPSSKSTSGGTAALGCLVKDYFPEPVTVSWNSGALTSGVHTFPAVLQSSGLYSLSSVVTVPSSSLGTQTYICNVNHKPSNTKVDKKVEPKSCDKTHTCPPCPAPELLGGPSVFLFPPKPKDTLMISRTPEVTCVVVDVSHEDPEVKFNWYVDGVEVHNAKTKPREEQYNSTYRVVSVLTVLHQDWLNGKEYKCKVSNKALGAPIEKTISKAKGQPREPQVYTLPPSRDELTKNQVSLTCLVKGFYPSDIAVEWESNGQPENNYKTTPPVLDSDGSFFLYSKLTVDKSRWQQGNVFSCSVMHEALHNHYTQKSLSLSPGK
Sequence of HB37A6 PG Ab (P329G mutated HB37A6 antibody, human IgG1) (light, as listed by the source, chain 2 of 2): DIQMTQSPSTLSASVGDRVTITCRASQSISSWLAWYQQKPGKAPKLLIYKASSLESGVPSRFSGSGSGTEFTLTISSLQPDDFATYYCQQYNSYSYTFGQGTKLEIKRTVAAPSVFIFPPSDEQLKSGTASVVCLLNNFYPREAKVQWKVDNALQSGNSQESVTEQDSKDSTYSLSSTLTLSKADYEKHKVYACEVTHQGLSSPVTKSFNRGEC

Binder | proliferation of CAR-T cells on plate-bound antibody (CellTiter-Glo), 2 days, against the WT antibody [1] [fold] | proliferation of CAR-T cells on plate-bound antibody (CellTiter-Glo), 3 days, against the WT antibody [1] [fold] | Kd [2] [nM] | koff [2] [s⁻¹] | kon [2] [M⁻¹ s⁻¹]
HuR968B CAR on CAR-T cells (receptor) EVQLVESGGGLVQPGGSLRLSCAASGFTFSRYWMNWVRQAPGKGLEWVGEITPDSSTINYAPSLKGRFTISRDNAKNSLYLQMNSLRAEDTAVYYCARPYDYGAWFASWGQGTLVTVSSGGGGSGGGGSGGGGSGGGGSQAVVTQEPSLTVSPGGTVTLTCRSSTGAVTTSNYANWVQEKPDHLFTGLIGGTNKRAPGTPARFSGSLLGGKAALTLSGAQPEDEAEYYCALWYSNHWVFGGGTKLTVLGGGGSIYIWAPLAGTCGVLLLSLVITLYCKRGRKKLLYIFKQPFMRPVQTTQEEDGCSCRFPEEEEGGCELRVKFSRSADAPAYQQGQNQLYNELNLGRREEYDVLDKRRGRDPEMGGKPRRKNPQEGLYNELQKDKMAEAYSEIGMKGERRRGKGHDGLYQGLSTATKDTYDALHMQALPPR | ~2 | ~3.3 | – | – | –
Hz3G3 PG Ab (antibody, human IgG1, kappa, V domains shown, also called G3 PG antibody; G3 antibody) VH: QVQLVQSGAEVKKPGASVKVSCKASGYSFTTYWMHWVRQAPGQGLEWMGLIDPSDSETRLNQKFKDRVTMTVDTSTSTVYMELSSLRSEDTAVYYCASNRWLLGWGQGTLVTVSS VL: DIVMTQSPDSLAVSLGERATINCKSSQSLLNSGNQKNYLTWYQQKPGQPPKLLIYWASTRESGVPDRFSGSGSGTDFTLTISSLQAEDVAVYYCQNDYSYPLTFGQGTKLEIKR | – | – | 2.5 | 0.00177 | 709000
Hz69H9 PG Ab (P329G mutated Hz69H9 antibody, human IgG1) (antibody, V domains shown, also called H9 PG antibody; P329G H9 antibody) VH: QVQLVQSGAEVKKPGSSVKVSCKASGYSFSSYNIHWVRQAPGQGLEWMGYIAPFQGDSRYNQKFKGRVTITADKSTSTAYMELSSLRSEDTAVYYCARLNRGNSLDYWGQGTLVTVSS VL: DIVMTQSPDSLAVSLGERATINCKSSQSLFNSGNQRNYLTWYQQKPGQPPKLLIYWASTRESGVPDRFSGSGSGTDFTLTISSLQAEDVAVYYCQNNYIYPLTFGGGTKVEIKR | – | – | < 0.00527 | < 1e-05 | 1.9e+06
Hz69H9-1.2 PG Ab (antibody, human IgG1, kappa, V domains shown, Mutant of the parent Hz69H9 with point mutations in VH or VL; also called H9-1.2 PG antibody) VH: QVQLVQSGAEVKKPGSSVKVSCKASGYSFSSYNIHWVRQAPGQGLEWMGYIAPFQGDARYNQKFKGRVTITADKSTSTAYMELSSLRSEDTAVYYCARLNRGQSLDYWGQGTLVTVSS VL: DIVMTQSPDSLAVSLGERATINCKSSQSLFNAGNQRNYLTWYQQKPGQPPKLLIYWASTRESGVPDRFSGSGSGTDFTLTISSLQAEDVAVYYCQNNYIYPLTFGGGTKVEIKR | – | – | 0.98 | 0.00185 | 1.89e+06
Hz69H9-SA PG Ab (antibody, human IgG1, kappa, V domains shown, Mutant of the parent Hz69H9 with point mutations in VH or VL; also called H9-SA PG antibody) VH: QVQLVQSGAEVKKPGSSVKVSCKASGYSFSSYNISWVRQAPGQGLEWMGYIAPFQGDARYNQKFKGRVTITADKSTSTAYMELSSLRSEDTAVYYCARLNRGNSLDYWGQGTLVTVSS VL: DIVMTQSPDSLAVSLGERATINCKSSQSLFNSGNQRNYLTWYQQKPGQPPKLLIYWASTRESGVPDRFSGSGSGTDFTLTISSLQAEDVAVYYCQNNYIYPLTFGGGTKVEIKR | – | – | 0.325 | 0.000153 | 471000
